What was measured:
human TNFR2 [1] = target: T1, human TNFR2 (human, UniProt P20333 23-461); assay: cell-based or functional assay
T1 sequence: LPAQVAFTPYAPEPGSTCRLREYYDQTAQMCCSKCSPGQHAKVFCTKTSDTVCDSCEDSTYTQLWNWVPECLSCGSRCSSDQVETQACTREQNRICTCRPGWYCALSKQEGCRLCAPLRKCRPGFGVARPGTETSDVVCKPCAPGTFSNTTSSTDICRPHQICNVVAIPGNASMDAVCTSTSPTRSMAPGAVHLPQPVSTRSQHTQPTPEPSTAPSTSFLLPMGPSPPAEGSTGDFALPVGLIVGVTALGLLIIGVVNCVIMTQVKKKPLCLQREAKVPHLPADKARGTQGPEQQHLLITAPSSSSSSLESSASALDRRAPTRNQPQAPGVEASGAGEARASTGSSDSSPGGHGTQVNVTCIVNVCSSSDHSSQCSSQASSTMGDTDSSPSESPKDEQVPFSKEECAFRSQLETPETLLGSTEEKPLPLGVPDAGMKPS

human TNFR2 [2] = target: T1, human TNFR2; assay: cell-based or functional assay; remark: listed apart in the source
cynomolgus monkey TNFR2 [3] = target: T2, cynomolgus monkey TNFR2 (cynomolgus monkey, UniProt P20333 23-461 (human entry)); assay: cell-based or functional assay
T2 chain: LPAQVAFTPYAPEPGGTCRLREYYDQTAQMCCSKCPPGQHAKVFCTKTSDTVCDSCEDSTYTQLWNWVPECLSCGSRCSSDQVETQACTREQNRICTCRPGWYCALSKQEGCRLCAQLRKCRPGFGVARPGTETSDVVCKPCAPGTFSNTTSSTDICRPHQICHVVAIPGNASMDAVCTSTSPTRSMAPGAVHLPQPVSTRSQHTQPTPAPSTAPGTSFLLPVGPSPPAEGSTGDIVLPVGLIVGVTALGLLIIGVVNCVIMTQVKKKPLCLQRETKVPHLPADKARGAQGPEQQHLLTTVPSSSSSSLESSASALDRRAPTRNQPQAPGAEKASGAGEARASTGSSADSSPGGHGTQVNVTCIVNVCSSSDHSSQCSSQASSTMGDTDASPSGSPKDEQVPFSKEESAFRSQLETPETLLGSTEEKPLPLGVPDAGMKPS

human TNFR2 [4] = target: T1, human TNFR2; assay: cell-based or functional assay; remark: listed apart in the source
human TNFR2 [5] = target: T1, human TNFR2; assay: cell-based or functional assay; remark: listed apart in the source
cynomolgus monkey TNFR2 [6] = target: T2, cynomolgus monkey TNFR2; assay: cell-based or functional assay
human TNFR2 [7] = target: T1, human TNFR2; assay: binding to human TNFR2 CHO cells
human TNFR2 [8] = target: T1, human TNFR2; assay: binding to human TNFR2 CHO cells; remark: listed apart in the source
cynomolgus monkey TNFR2 [9] = target: T2, cynomolgus monkey TNFR2; assay: binding to CHO cells over-expressing cyno TNFR2
human TNFR2 [10] = target: T1, human TNFR2; assay: binding to CHO cells over-expressing human TNFR2
cynomolgus monkey TNFR2 [11] = target: T2, cynomolgus monkey TNFR2; assay: binding to cyno TNFR2 CHO cells (repeats Table 1)
human TNFR2 [12] = target: T1, human TNFR2; assay: binding to human TNFR2 CHO cells (repeats Table 1)
biotinylated human TNFR2 = target: T3, biotinylated human TNFR2 (human, UniProt P20333 23-257, biotinylated); assay: SPR (BIAcore), biotinylated TNFR2 captured on streptavidin chip, antibody as analyte (apparent affinity)
T3 construct: Soluble biotinylated protein captured on a streptavidin chip for SPR; also called HuTNFR2
T3 sequence: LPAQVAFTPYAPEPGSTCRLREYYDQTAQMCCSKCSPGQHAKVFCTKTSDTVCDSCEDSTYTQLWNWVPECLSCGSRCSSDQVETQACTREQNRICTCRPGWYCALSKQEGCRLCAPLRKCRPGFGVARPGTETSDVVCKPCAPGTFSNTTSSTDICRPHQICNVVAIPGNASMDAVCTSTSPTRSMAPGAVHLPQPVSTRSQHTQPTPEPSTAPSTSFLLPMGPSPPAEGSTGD
Protocol: (§1) Increased avidity was confirmed by Surface Plasmon Resonance (SPR) using a BIAcore. Briefly, biotinylated human- or cyno-TNFR2 was captured on the surface of a streptavidin chip for 60 seconds at a flow rate of […]. […] The dissociation phase was then initiated with running buffer (HBS-EP+) injected for 600 seconds at […]. Data were analyzed using the Biacore Evaluation Software.

biotinylated cyno TNFR2 = target: T4, biotinylated cyno TNFR2 (cynomolgus monkey, UniProt P20333 23-257 (human entry), limits assumed, biotinylated); assay: as above
T4 construct: Soluble biotinylated protein captured on a streptavidin chip for SPR; also called CyTNFR2
T4 chain: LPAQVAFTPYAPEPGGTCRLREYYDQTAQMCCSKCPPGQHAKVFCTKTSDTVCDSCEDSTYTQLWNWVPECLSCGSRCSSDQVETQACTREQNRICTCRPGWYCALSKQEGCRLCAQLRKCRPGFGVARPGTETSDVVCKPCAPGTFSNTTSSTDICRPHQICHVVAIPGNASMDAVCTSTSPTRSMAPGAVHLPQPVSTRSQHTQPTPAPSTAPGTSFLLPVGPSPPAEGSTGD
Protocol: as §1

B1: GBT-TNFR2-854 (parental) (antibody, human IgG2, kappa, V domains shown)
VH: QVQLKESGPGLVAPSQSLSITCTVSGFSFPSSGVDWVRQSPGKGLEWLGVTWGVGSTHYNSALKSRLSISKDNSKSQVFLKMNSLQTEDTAIYYCASGEWDEGFVYWGQGTLVTVSA
VL: DIVMTQSQKFMSTTVGDRVSITCKASQNVGTAVAWYQQKPGQSPKLLIYSASNRYTGVPDRFTGSGSGTDFTLTISNMQSEDLADYFCQQYSSYPLTFGGGTKLEIKR
notes: Chimeric mouse V / human IgG2 effector-null, kappa; same hybridoma clone as IgG1 825
- Jurkat (ng/ml), EC50 in NF-KB-GFP reporter assay (human TNFR2 [1]): 711 ng/mL
- EC50 (HuPBMC) (human TNFR2 [2]): 1.4 nM
- Jurkat EC50 (human TNFR2 [2]): 1.74 µg/mL
- EC50 (CyPBMC) (cynomolgus monkey TNFR2 [3]): 15 nM
- EC50 Jurkat (human TNFR2 [4]): 0.526 µg/mL
- EC50 HuPBMC (ICAM-1 up-regulation) (human TNFR2 [5]): 1.4 µg/mL
- EC50 CyPBMC (CD25+/Ki67+ of CD4+ cells) (cynomolgus monkey TNFR2 [6]): 27.2 µg/mL
- EC50 (human TNFR2 [7]): 1.13 nM
- EC50 (human TNFR2 [8]): 1.13 nM
- EC50 (cynomolgus monkey TNFR2 [9]): 0.13 µg/mL
- EC50 (human TNFR2 [10]): 0.106 µg/mL
- EC50 (cynomolgus monkey TNFR2 [11]): 0.13 µg/mL
- EC50 (human TNFR2 [12]): 0.106 µg/mL
- Kd (biotinylated human TNFR2): 0.11 nM
- koff (biotinylated human TNFR2): 0.00125 s⁻¹
- kon (biotinylated human TNFR2): 1.13e+07 M⁻¹ s⁻¹
- Kd (biotinylated cyno TNFR2): 0.89 nM
- koff (biotinylated cyno TNFR2): 0.00996 s⁻¹
- kon (biotinylated cyno TNFR2): 1.12e+07 M⁻¹ s⁻¹
